From paper PMC5172437
Like-named read-outs stand apart in the source and are kept apart here.

Columns and labels:
[1] = molecular target: T1, human tumor necrosis factor alpha (hTNFa) (human, UniProt P01375 77-233); test: ELONA
[2] = molecular target: T1, human tumor necrosis factor alpha …; test: ELONA; remark: listed apart in the source
[3] = molecular target: T1, human tumor necrosis factor alpha …
[4] = molecular target: T1, human tumor necrosis factor alpha …; remark: listed apart in the source
[5] = molecular target: T1, human tumor necrosis factor alpha …; test: ELONA; remark: listed apart in the source

T1 sequence (P01375 77-233): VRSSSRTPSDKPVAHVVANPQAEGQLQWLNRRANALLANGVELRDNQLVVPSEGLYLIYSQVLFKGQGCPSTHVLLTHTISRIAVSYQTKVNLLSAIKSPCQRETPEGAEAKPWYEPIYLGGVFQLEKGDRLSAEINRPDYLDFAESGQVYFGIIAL

CCCCGGGUUCUGUAUGAUCCGACCGGUCAGAUAAGACCAC (ssRNA) [3.1 random region]
binding result [1]: binds

UCAUGGUGUGUGAGUUAGCUCACGUGCCGUUUCGAAGGCG (ssRNA) [13.2 random region]
binding result [2]: binds

CAUGGGCUAGACCGGCAUAAAACUGCUGUAGUUGCACGCC (ssRNA) [17.9 random region]
binding result [1]: binds

CGUGCUAGAUGCUACGAGUGGUCUCCUCACGUAGAAGGGG (ssRNA) [16.3 random region]
binding result [1]: binds

CGUUGUAGUAGUGGCUUGGGCAUAACUCAGUUAAACACUA (ssRNA) [20.4 random region]
binding result [1]: binds

CGUAUAUACGGAUUAGGUUGUAGCUCAGACCAGUAAUGUC (ssRNA) [14.8 random region]
binding result [2]: binds

CGCAUCGUUUGCGUGGCGUGUCCGGGCGCCGAUUCGUAAA (ssRNA) [7.5 random region]
binding result [2]: binds

GGAGUAUCUGAUGACAAUUCGGAGCUCC (ssRNA) [T3.11.7 (28 nt)]
binding result [3]: binds

UACGGAUUAGGUUGUAGCUCAGACCAGUA (ssRNA) [T4.14.8 (29 nt)]
binding result [4]: binds

CAAGCCGAGGGGGAGUAUCUGAUGACAAUUCGGAGCUCCA (ssRNA) [11.7 random region]
binding result [5]: binds

GGUCCCACAUAGGUUGGUCUUGUUGUAUGGGCUGUUUGCA (ssRNA) [18.10 random region]
binding result [1]: binds

AGGACGUACUUGGAAAAGAGGCGCGAAGAACCUGGUAUGU (ssRNA) [8.6 random region]
binding result [1]: binds
